Molecular target: T1, preassembled pyrene-actin filaments (Gallus gallus, UniProt P68139)
T1 construct: Mince 2 kg of fresh, boneless, skinless chicken breast in a pre-chilled meat grinder; from tissue; host or cells: chicken breast (skeletal) muscle, via acetone powder
Assay: pyrene actin assay (decrease in fluorescence of filamentous pyrene-actin on addition of cofilin)
Type: biochemical, chicken
Conditions: addition of stoichiometric amounts of cofilin to preassembled pyrene-actin filaments; FIG. 3
From the text: The effect of cofilin on preassembled pyrene-actin filaments is monitored. Two cofilin activities—binding to actin polymer and enhancing depolymerization—combine to reduce the relative fluorescence intensity. Addition of stoichiometric amounts of cofilin results in a 3-5 fold reduction in fluorescence intensity. In both these assays, any inhibitor will result in an increase in relative fluorescence intensity. For both graphs, the x-axes show cycle number (1 cycle/30 sec) and the y-axes reflect fluorescence in arbitrary units..
Assays for the interaction of A. fumigatus cofilin and any other cofilin with actin in 384-well plates using a fluorescence as the detection means have been developed. […]
Upon addition of cofilin to filamentous pyrene-actin, two well-characterized biochemical activities can be monitored. First, cofilin binds to the filaments and partially quenches the pyrene fluorescence. Second, it induces filament disassembly, further decreasing pyrene fluorescence. The decrease in fluorescence that results when cofilin is added to filamentous actin is monitored (FIG. 3). An inhibitor of the interaction of cofilin with pyrene-actin will result in an increase in fluorescence. […]
Thaw Actin, Pyrene-Actin and Cofilin pellets on ice or at room temp. […] Take readings at OD290. […]
Add 25 ul of sample into each well. […] Take Pyrene-Kinetic readings (Fluorostar setting) at 150 cycles, 360 to […].

B1: A. fumigatus cofilin: proteins or polypeptides present in A. fumigatus that are capable of binding actin; amino acid sequence SEQ ID NO:2; expressed in E. coli (protein, listed as Aspergillus fumigatus)
chain: MALASGVSIADECITAFNDFRMSGNKANKTKFIIFKIADNKKEVVIDEVSQEEDYEVFRSRLEATKDSKGNPAPRYAVYDVEYDLGGGEGKRSKIVFISWVPSDTPTLWSMIYASTRENLKNALNIHTSIHADDKGDIEWKTVLAEASGGKAGK
modifications: Cofilin sequence
notes: expressed in E. coli
B1 was tested, and the “reduction in fluorescence intensity” value was 3-5 fold.

From patent US20040138440A1, “Aspergillus fumigatus cofilin” (priority 2004, published 2004)
